Results on 26 substances are retold here after patent US20120283168A1.

For this assay, the target named is human CCR10 (human) (UniProt P46092). Put plainly: cell-based or functional assay.
human CCR10 (human), sequence (P46092 whole entry): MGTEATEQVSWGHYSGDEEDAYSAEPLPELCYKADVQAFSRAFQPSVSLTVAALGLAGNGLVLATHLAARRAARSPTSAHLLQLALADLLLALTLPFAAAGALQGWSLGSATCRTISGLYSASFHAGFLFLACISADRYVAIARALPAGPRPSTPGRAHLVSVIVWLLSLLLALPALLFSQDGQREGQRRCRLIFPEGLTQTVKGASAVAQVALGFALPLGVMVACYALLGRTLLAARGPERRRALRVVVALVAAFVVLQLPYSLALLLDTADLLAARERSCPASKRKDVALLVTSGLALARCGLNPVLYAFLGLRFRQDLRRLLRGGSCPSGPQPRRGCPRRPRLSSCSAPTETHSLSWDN
Turning to “cyclo(-2Nal-Cyp-Trp-Dab-^DPip-Pip-) (peptide)”, the IC50 (nM) Calcium Flux Assay amounted to 43.2 nM and the IC50 (nM) Chemotaxis Assay was determined as 9.7 nM. On to “cyclo(-2Nal-Cyp-Trp-Gln-^DPro-Tic-) (peptide)”, for which the IC50 (nM) Calcium Flux Assay is 9.2 nM and the IC50 (nM) Chemotaxis Assay was found to be 2 nM. The matching figures for “cyclo(-Bbta-Cyp-Trp-Dab-^DPro-Oic-) (peptide)”: 220 nM and 18.9 nM. For “cyclo(-Bip-Cyp-Trp-Dab-^DPro-Oic-) (peptide)”, the IC50 (nM) Calcium Flux Assay amounted to 8.1 nM and the IC50 (nM) Chemotaxis Assay came to 1.8 nM. “cyclo(-Cha-Cyp-Trp-Dab-^DPro-Oic-) (peptide)”: the IC50 (nM) Calcium Flux Assay was 243 nM. Regarding “cyclo(-Nle(6OBn)-Cyp-Trp-Dab-^DPro-Oic-) (peptide)”, the IC50 (nM) Chemotaxis Assay was found to be 16.6 nM. In the case of “cyclo(-OctG-Cyp-Trp-Dab-^DPro-Oic-) (peptide)”, the IC50 (nM) Calcium Flux Assay is 40.4 nM and the IC50 (nM) Chemotaxis Assay stood at 4.2 nM. Take “cyclo(-Phe(3CF3)-Cyp-Trp-Dab-^DPro-Oic-) (peptide)”: the IC50 (nM) Calcium Flux Assay was found to be 41.1 nM and the IC50 (nM) Chemotaxis Assay was 3.2 nM. In the same order, the values of “cyclo(-Phe(4CF3)-Cyp-Trp-3Pal-^DPic-Oic-) (peptide)” are 63.2 nM and 2.7 nM. The matching figures for “cyclo(-Phe(4CF3)-Cyp-Trp-Dab-^DPip-Pro((4R)Ph)-) (peptide)”: 14.8 nM and 22 nM. As to “cyclo(-Phe(4CF3)-Cyp-Trp-Dab-^DPro-Hyp(4BrBn)-) (peptide)”, the IC50 (nM) Calcium Flux Assay turned out to be 22.6 nM. Regarding “cyclo(-Phe(4CF3)-Cyp-Trp-Dab-^DPro-Oic-) (peptide)”, the IC50 (nM) Calcium Flux Assay came out at 58.1 nM and the IC50 (nM) Chemotaxis Assay came out at 13.4 nM. The matching figures for “cyclo(-Phe(4CN)-Cyp-Phe(4F)-Ser-^DPro-Hyp(Bn)-) (peptide)”: 1.9 nM and 13.5 nM. The matching figures for “cyclo(-Phe(4CN)-Cyp-Trp-Dab-^DPro-Hyp(Bn)-) (peptide)”: 181 nM and 5.3 nM.

In the case of “cyclo(-Phe(4CN)-Cyp-Trp-Dab-^DPro-Oic-) (peptide)”, the IC50 (nM) Calcium Flux Assay was 280 nM and the IC50 (nM) Chemotaxis Assay stood at 48 nM. “cyclo(-Phe(4CN)-Cyp-Trp-Gln-^DPro-Hyp(Bn)-) (peptide)”: the IC50 (nM) Calcium Flux Assay came out at 21.7 nM. On to “cyclo(-Phe(4CN)-Cyp-Trp-Ser-^DPip-Hyp(Bn)-) (peptide)”, for which the IC50 (nM) Calcium Flux Assay was 0.5 nM and the IC50 (nM) Chemotaxis Assay was 1.8 nM. As to “cyclo(-Phe(4CN)-Cyp-Trp-Ser-^DPro-Hyp(4BrBn)-) (peptide)”, the IC50 (nM) Calcium Flux Assay was 5.3 nM and the IC50 (nM) Chemotaxis Assay was 0.6 nM. As to “cyclo(-Phe(4CN)-Cyp-Trp-Ser-^DPro-Oic-) (peptide)”, the IC50 (nM) Calcium Flux Assay was 80.3 nM. On to “cyclo(-Phe(4COOMe)-Cyp-Trp-Dab-^DPro-Oic-) (peptide)”, for which the IC50 (nM) Calcium Flux Assay worked out at 476 nM and the IC50 (nM) Chemotaxis Assay turned out to be 14.7 nM. In the case of “cyclo(-Trp(5OH)-Chx-Trp(5OH)-Arg-^DPro-Oic-) (peptide)”, the IC50 (nM) Calcium Flux Assay was found to be 548 nM and the IC50 (nM) Chemotaxis Assay was found to be 11.6 nM.

For the substance “cyclo(-Trp(5OH)-Cyp-Trp(5OH)-Dap-^DPro-Oic-) (peptide)”, the IC50 (nM) Calcium Flux Assay was 246 nM. For “cyclo(-Trp(5OH)-Cyp-Trp-Arg-^DPro-Thz(5,5Me2)-) (peptide)”, the IC50 (nM) Calcium Flux Assay turned out to be 214 nM and the IC50 (nM) Chemotaxis Assay was found to be 109 nM. With “cyclo(-Trp(5OH)-Cyp-Trp-Arg-^DPro-Tic-) (peptide)”, the IC50 (nM) Calcium Flux Assay was determined as 52.5 nM.

With “cyclo(-Trp(5OH)-Cyp-Trp-Gln-^DPro-Thz-) (peptide)”, the IC50 (nM) Calcium Flux Assay stood at 144 nM and the IC50 (nM) Chemotaxis Assay was 3.1 nM.

For “cyclo(-Trp(6Cl)-Cyp-Trp-Dab-^DPro-Hyp(Bn)-) (peptide)”, the IC50 (nM) Calcium Flux Assay was found to be 8.5 nM and the IC50 (nM) Chemotaxis Assay was 8.6 nM.
